From patent US20220411483A1 (Chugai, published 2022)

T1: FcgRIIb (human, UniProt P31994 43-217)
T1 construct: extracellular domain; also called FcγRIIb
T1 sequence (looked up): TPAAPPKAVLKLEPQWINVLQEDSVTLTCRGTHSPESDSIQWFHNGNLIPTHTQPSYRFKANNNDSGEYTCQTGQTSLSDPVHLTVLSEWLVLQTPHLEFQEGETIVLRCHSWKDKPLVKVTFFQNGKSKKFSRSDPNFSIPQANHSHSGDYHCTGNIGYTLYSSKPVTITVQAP

T2: FcgRIIaR (human, UniProt P12318 34-217)
T2 construct: extracellular domain; also called FcγRIIa R type; FcγRIIa (R type)
T2 sequence (looked up): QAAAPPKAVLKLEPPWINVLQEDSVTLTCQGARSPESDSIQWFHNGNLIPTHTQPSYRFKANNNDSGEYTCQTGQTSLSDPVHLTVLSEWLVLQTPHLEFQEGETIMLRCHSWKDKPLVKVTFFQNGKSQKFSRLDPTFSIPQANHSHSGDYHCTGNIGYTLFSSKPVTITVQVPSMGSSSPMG

T3: human FcγRIIa R type extracellular domain with C-terminal His tag (human, UniProt P12318 34-217)
T3 construct: extracellular domain; also called FcgRIIaR
T3 sequence (looked up): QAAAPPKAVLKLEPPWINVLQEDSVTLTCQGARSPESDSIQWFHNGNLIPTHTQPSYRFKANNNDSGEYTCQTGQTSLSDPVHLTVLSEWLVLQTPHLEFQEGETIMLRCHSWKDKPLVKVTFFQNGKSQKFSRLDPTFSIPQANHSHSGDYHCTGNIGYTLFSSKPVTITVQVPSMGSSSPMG

T4: human FcγRIIb extracellular domain with C-terminal His tag (human, UniProt P31994 43-217)
T4 construct: extracellular domain; also called FcgRIIb
T4 sequence (looked up): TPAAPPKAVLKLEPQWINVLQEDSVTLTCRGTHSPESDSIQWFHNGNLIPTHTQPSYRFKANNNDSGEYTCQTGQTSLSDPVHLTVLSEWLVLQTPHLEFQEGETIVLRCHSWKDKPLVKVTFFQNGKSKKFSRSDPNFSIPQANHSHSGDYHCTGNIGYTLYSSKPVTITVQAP

T5: human FcγRIIa H type extracellular domain with C-terminal His tag (human, UniProt P12318 34-217)
T5 construct: extracellular domain; also called FcgRIIaH
T5 sequence (looked up): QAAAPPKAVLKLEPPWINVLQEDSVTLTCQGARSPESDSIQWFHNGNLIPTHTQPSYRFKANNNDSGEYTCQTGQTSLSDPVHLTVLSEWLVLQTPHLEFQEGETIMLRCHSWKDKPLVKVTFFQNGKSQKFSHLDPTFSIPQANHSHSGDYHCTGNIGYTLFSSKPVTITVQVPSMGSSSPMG


What was measured:
FcgRIIb = molecular target: T1, FcgRIIb; assay: SPR, amount bound per captured antibody
FcgRIIaR = molecular target: T2, FcgRIIaR; assay: SPR, amount bound per captured antibody
human complement C1q = molecular target: T6, human complement C1q (human, UniProt P02745 23-245; P02746 28-253; P02747 29-245); assay: SPR, C1q bound per antibody captured on Protein L
T6 construct: Bought (PROSPEC or Calbiochem); also called human C1q
T6 sequence (P02745 23-245 limits assumed, chain 1 of 3): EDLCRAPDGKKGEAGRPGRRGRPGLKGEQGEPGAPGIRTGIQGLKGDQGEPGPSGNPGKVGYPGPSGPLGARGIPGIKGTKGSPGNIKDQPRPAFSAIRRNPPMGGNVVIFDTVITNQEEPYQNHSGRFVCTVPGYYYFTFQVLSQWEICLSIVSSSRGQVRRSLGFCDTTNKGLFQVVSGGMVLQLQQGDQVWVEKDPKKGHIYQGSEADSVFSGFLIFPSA
T6 sequence (P02746 28-253 limits assumed, chain 2 of 3): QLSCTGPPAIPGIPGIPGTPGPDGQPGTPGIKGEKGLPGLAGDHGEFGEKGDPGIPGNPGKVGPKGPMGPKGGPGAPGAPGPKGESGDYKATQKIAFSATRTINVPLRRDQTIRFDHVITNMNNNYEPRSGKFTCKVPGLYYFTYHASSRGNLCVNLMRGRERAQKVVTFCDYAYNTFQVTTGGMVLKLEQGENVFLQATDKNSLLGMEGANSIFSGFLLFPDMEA
T6 sequence (P02747 29-245 limits assumed, chain 3 of 3): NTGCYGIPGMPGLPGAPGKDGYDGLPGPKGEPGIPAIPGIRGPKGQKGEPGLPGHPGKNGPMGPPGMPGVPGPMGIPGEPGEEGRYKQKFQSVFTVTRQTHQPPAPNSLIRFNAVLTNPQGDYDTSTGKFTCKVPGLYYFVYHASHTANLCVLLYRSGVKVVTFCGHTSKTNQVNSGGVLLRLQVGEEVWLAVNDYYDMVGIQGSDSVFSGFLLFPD
In short: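 Antibodies captured on Protein L immobilized on a CM4 chip were exposed to human C1q diluted in HBS-EP+ running buffer at 25° C. C1q binding was normalized as C1q bound divided by antibody captured. The surface was regenerated with 10 mM glycine-HCl, pH 1.5.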

[1] = molecular target: T3, human FcγRIIa R type extracellular …; assay: SPR, KD of IL6R-G1d/IL6R-L divided by KD of variant
[2] = molecular target: T4, human FcγRIIb extracellular domain with …; assay: as above
[3] = molecular target: T5, human FcγRIIa H type extracellular …; assay: as above
[4] = molecular target: T7, human FcγRIa extracellular domain with C-terminal His tag (human, UniProt P12314 16-292); assay: as above
T7 construct: Whole entry named; also called FcgRIa
T7 sequence (P12314 16-292): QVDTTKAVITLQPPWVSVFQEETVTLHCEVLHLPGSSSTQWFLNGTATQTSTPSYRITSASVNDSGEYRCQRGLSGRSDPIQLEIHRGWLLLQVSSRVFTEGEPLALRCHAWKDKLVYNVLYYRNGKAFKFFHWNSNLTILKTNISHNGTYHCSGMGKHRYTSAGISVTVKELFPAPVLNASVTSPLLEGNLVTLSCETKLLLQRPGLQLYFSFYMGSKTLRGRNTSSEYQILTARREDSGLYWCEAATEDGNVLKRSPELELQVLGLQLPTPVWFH

[5] = molecular target: T8, human FcγRIIIa V type extracellular domain with C-terminal His tag (human, UniProt P08637 17-208); assay: as above
T8 construct: extracellular domain; also called FcgRIIIaV
T8 sequence (P08637 17-208 F176V): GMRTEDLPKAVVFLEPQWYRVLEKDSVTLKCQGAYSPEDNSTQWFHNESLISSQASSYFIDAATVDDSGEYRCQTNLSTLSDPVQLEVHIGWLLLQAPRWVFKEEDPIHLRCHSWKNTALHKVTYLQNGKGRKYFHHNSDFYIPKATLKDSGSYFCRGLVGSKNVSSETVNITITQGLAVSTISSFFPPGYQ

[6] = molecular target: T4, human FcγRIIb extracellular domain with …; assay: SPR, antibody captured, FcgR analyte
[7] = molecular target: T7, human FcγRIa extracellular domain with …; assay: SPR, antibody captured, FcgR analyte

Row | Binder | Relative FcgRIIb-binding Activity (FcgRIIb) [IL6R-G1d/IL6R-L=100] | Relative FcgRIIaR-binding Activity (FcgRIIaR) [IL6R-G1d/IL6R-L=100] | Amount of C1q-binding when that for G1d is Defined as 100 (human complement C1q) [G1d=100] | Relative FcgRIIaR-binding Activity [1] | Relative FcgRIIb-binding Activity [2] | Relative FcgRIIaH-binding Activity [3] | Relative FcgRIa-binding Activity [4] | Relative FcgRIIIaV-binding Activity [5] | Kd [6] [µM] | Kd [7] [µM]
1 | IL6R-P782/IL6R-L (antibody, human IgG1, kappa) heavy: QVQLQESGPGLVKPSETLSLTCAVSGHSISHDHAWSWVRQPPGEGLEWIGFISYSGITNYNPSLQGRVTISRDNSKNTLYLQMNSLRAEDTAVYYCARSLARTTAMDYWGEGTLVTVSSASTKGPSVFPLAPSSKSTSGGTAALGCLVKDYFPEPVTVSWNSGALTSGVHTFPAVLQSSGLYSLSSVVTVPSSSLGTQTYICNVNHKPSNTKVDKKVEPKSCDKTHTCPPCPAPDLLGGDSVFLFPPKPKDTLMISRTPEVTCVVVDVSHEDPEVKFNWYVDGVEVHNAKTKPREEQYNSTYRVVSVLTVLHQDWLNGKEYKCKVSNKGLPSSIEKTISKAKGQPREPQVYTLPPSRDELTKNQVSLTCLVKGFYPSDIAVEWESNGQPENNYKTTPPVLDSDGSFFLYSKLTVDKSRWQQGNVFSCSVMHEALHNHYTQKSLSLSP light: not shown | 95.1 | 14.2 | 1.3 | – | – | – | – | – | – | –
2 | IL6R-P783/IL6R-L (antibody, human IgG1, kappa) heavy: QVQLQESGPGLVKPSETLSLTCAVSGHSISHDHAWSWVRQPPGEGLEWIGFISYSGITNYNPSLQGRVTISRDNSKNTLYLQMNSLRAEDTAVYYCARSLARTTAMDYWGEGTLVTVSSASTKGPSVFPLAPSSKSTSGGTAALGCLVKDYFPEPVTVSWNSGALTSGVHTFPAVLQSSGLYSLSSVVTVPSSSLGTQTYICNVNHKPSNTKVDKKVEPKSCDKTHTCPPCPAPELLGDDSVFLFPPKPKDTLMISRTPEVTCVVVDVSHEDPEVKFNWYVDGVEVHNAKTKPREEQYNSTYRVVSVLTVLHQDWLNGKEYKCKVSNKGLPSSIEKTISKAKGQPREPQVYTLPPSRDELTKNQVSLTCLVKGFYPSDIAVEWESNGQPENNYKTTPPVLDSDGSFFLYSKLTVDKSRWQQGNVFSCSVMHEALHNHYTQKSLSLSP light: not shown | 97.9 | 20.5 | 13.3 | – | – | – | – | – | – | –
3 | IL6R-P784/IL6R-L (antibody, human IgG1, kappa) heavy: QVQLQESGPGLVKPSETLSLTCAVSGHSISHDHAWSWVRQPPGEGLEWIGFISYSGITNYNPSLQGRVTISRDNSKNTLYLQMNSLRAEDTAVYYCARSLARTTAMDYWGEGTLVTVSSASTKGPSVFPLAPSSKSTSGGTAALGCLVKDYFPEPVTVSWNSGALTSGVHTFPAVLQSSGLYSLSSVVTVPSSSLGTQTYICNVNHKPSNTKVDKKVEPKSCDKTHTCPPCPAPDLLGDDSVFLFPPKPKDTLMISRTPEVTCVVVDVSHEDPEVKFNWYVDGVEVHNAKTKPREEQYNSTYRVVSVLTVLHQDWLNGKEYKCKVSNKGLPSSIEKTISKAKGQPREPQVYTLPPSRDELTKNQVSLTCLVKGFYPSDIAVEWESNGQPENNYKTTPPVLDSDGSFFLYSKLTVDKSRWQQGNVFSCSVMHEALHNHYTQKSLSLSP light: not shown | 118 | 28.6 | 24.2 | – | – | – | – | – | – | –

Now from value to binder:

Row | Relative FcgRIIb-binding Activity (FcgRIIb) [IL6R-G1d/IL6R-L=100] | Relative FcgRIIaR-binding Activity (FcgRIIaR) [IL6R-G1d/IL6R-L=100] | Amount of C1q-binding when that for G1d is Defined as 100 (human complement C1q) [G1d=100] | Relative FcgRIIaR-binding Activity [1] | Relative FcgRIIb-binding Activity [2] | Relative FcgRIIaH-binding Activity [3] | Relative FcgRIa-binding Activity [4] | Relative FcgRIIIaV-binding Activity [5] | Kd [6] [µM] | Kd [7] [µM] | Binder
4 | 51.1 | 7.8 | 24 | – | – | – | – | – | – | – | IL6R-P781/IL6R-L (antibody, human IgG1, kappa) heavy: QVQLQESGPGLVKPSETLSLTCAVSGHSISHDHAWSWVRQPPGEGLEWIGFISYSGITNYNPSLQGRVTISRDNSKNTLYLQMNSLRAEDTAVYYCARSLARTTAMDYWGEGTLVTVSSASTKGPSVFPLAPSSKSTSGGTAALGCLVKDYFPEPVTVSWNSGALTSGVHTFPAVLQSSGLYSLSSVVTVPSSSLGTQTYICNVNHKPSNTKVDKKVEPKSCDKTHTCPPCPAPELLGGDSVFLFPPKPKDTLMISRTPEVTCVVVDVSHEDPEVKFNWYVDGVEVHNAKTKPREEQYNATYRVVSVLTVLHQDWLNGKEYKCKVSNKGLPSSIEKTISKAKGQPREPQVYTLPPSRDELTKNQVSLTCLVKGFYPSDIAVEWESNGQPENNYKTTPPVLDSDGSFFLYSKLTVDKSRWQQGNVFSCSVMHEALHNHYTQKSLSLSP light: not shown
5 | 58.4 | 9.1 | 1.3 | – | – | – | – | – | – | – | IL6R-P785/IL6R-L (antibody, human IgG1, kappa) heavy: QVQLQESGPGLVKPSETLSLTCAVSGHSISHDHAWSWVRQPPGEGLEWIGFISYSGITNYNPSLQGRVTISRDNSKNTLYLQMNSLRAEDTAVYYCARSLARTTAMDYWGEGTLVTVSSASTKGPSVFPLAPSSKSTSGGTAALGCLVKDYFPEPVTVSWNSGALTSGVHTFPAVLQSSGLYSLSSVVTVPSSSLGTQTYICNVNHKPSNTKVDKKVEPKSCDKTHTCPPCPAPDLLGGDSVFLFPPKPKDTLMISRTPEVTCVVVDVSHEDPEVKFNWYVDGVEVHNAKTKPREEQYNATYRVVSVLTVLHQDWLNGKEYKCKVSNKGLPSSIEKTISKAKGQPREPQVYTLPPSRDELTKNQVSLTCLVKGFYPSDIAVEWESNGQPENNYKTTPPVLDSDGSFFLYSKLTVDKSRWQQGNVFSCSVMHEALHNHYTQKSLSLSP light: not shown [IL6R-P785/IL6R-L, listing 1 of 2 here]
6 | 84 | 14.7 | 24 | – | – | – | – | – | – | – | IL6R-P787/IL6R-L (antibody, human IgG1, kappa) heavy: QVQLQESGPGLVKPSETLSLTCAVSGHSISHDHAWSWVRQPPGEGLEWIGFISYSGITNYNPSLQGRVTISRDNSKNTLYLQMNSLRAEDTAVYYCARSLARTTAMDYWGEGTLVTVSSASTKGPSVFPLAPSSKSTSGGTAALGCLVKDYFPEPVTVSWNSGALTSGVHTFPAVLQSSGLYSLSSVVTVPSSSLGTQTYICNVNHKPSNTKVDKKVEPKSCDKTHTCPPCPAPDLLGDDSVFLFPPKPKDTLMISRTPEVTCVVVDVSHEDPEVKFNWYVDGVEVHNAKTKPREEQYNATYRVVSVLTVLHQDWLNGKEYKCKVSNKGLPSSIEKTISKAKGQPREPQVYTLPPSRDELTKNQVSLTCLVKGFYPSDIAVEWESNGQPENNYKTTPPVLDSDGSFFLYSKLTVDKSRWQQGNVFSCSVMHEALHNHYTQKSLSLSP light: not shown
7 | 62.4 | 11.5 | 12.9 | – | – | – | – | – | – | – | IL6R-P786/IL6R-L (antibody, human IgG1, kappa) heavy: QVQLQESGPGLVKPSETLSLTCAVSGHSISHDHAWSWVRQPPGEGLEWIGFISYSGITNYNPSLQGRVTISRDNSKNTLYLQMNSLRAEDTAVYYCARSLARTTAMDYWGEGTLVTVSSASTKGPSVFPLAPSSKSTSGGTAALGCLVKDYFPEPVTVSWNSGALTSGVHTFPAVLQSSGLYSLSSVVTVPSSSLGTQTYICNVNHKPSNTKVDKKVEPKSCDKTHTCPPCPAPELLGDDSVFLFPPKPKDTLMISRTPEVTCVVVDVSHEDPEVKFNWYVDGVEVHNAKTKPREEQYNATYRVVSVLTVLHQDWLNGKEYKCKVSNKGLPSSIEKTISKAKGQPREPQVYTLPPSRDELTKNQVSLTCLVKGFYPSDIAVEWESNGQPENNYKTTPPVLDSDGSFFLYSKLTVDKSRWQQGNVFSCSVMHEALHNHYTQKSLSLSP light: not shown
8 | – | – | – | 0.01 | 0.3 | 0.007 | 0.014 | 0.009 | 7.9 | 0.023 | IL6R-P785/IL6R-L (antibody, human IgG1, kappa) heavy: QVQLQESGPGLVKPSETLSLTCAVSGHSISHDHAWSWVRQPPGEGLEWIGFISYSGITNYNPSLQGRVTISRDNSKNTLYLQMNSLRAEDTAVYYCARSLARTTAMDYWGEGTLVTVSSASTKGPSVFPLAPSSKSTSGGTAALGCLVKDYFPEPVTVSWNSGALTSGVHTFPAVLQSSGLYSLSSVVTVPSSSLGTQTYICNVNHKPSNTKVDKKVEPKSCDKTHTCPPCPAPDLLGGDSVFLFPPKPKDTLMISRTPEVTCVVVDVSHEDPEVKFNWYVDGVEVHNAKTKPREEQYNATYRVVSVLTVLHQDWLNGKEYKCKVSNKGLPSSIEKTISKAKGQPREPQVYTLPPSRDELTKNQVSLTCLVKGFYPSDIAVEWESNGQPENNYKTTPPVLDSDGSFFLYSKLTVDKSRWQQGNVFSCSVMHEALHNHYTQKSLSLSP light: not shown [IL6R-P785/IL6R-L, listing 2 of 2 here]
